This is an account of results in patent US20240400708A1.

As usually defined, the Kd is the equilibrium constant for the complex coming apart. The low end stands for tighter binding, the high end for weaker binding.

Changes are numbered by the printed parent chain. Numbers in names are those of the source.

Sequences and labels used below:
B1: feline IgG1a S428M (antibody, part only; not given: Variable domains, not shown: another chain or arm of the molecule)
constant: ASTTAPSVFPLAPSCGTTSGATVALACLVLGYFPEPVTVSWNSGALTSGVHTFPAVLQASGLYSLSSMVTVPSSRWLSDTFTCNVAHPPSNTKVDKTVRKTDHPPGPKPCDCPKCPPPEMLGGPSIFIFPPKPKDTLSISRTPEVTCLVVDLGPDDSDVQITWFVDNTQVYTAKTSPREEQFNSTYRVVSVLPILHQDWLKGKEFKCKVNSKSLPSPIERTISKAKGQPHEPQVYVLPPAQEELSRNKVSVTCLIKSFHPPDIAVEWEITGQPEPENNYRTTPPQLDSDGTYFVYSKLSVDRSHWQRGNTYTCSVMHEALHSHHTQKSLTQSPGK
B2: feline IgG1a T256I (antibody, part only; not given: Variable domains, not shown: another chain or arm of the molecule)
constant: B1 constant with T142I, M316S
B3: feline IgG1a E430I (antibody, part only; not given: Variable domains, not shown: another chain or arm of the molecule)
constant: B1 constant with M316S, E318I
B4: feline IgG1a T256A (antibody, part only; not given: Variable domains, not shown: another chain or arm of the molecule)
constant: B1 constant with T142A, M316S
B5: feline IgG1a S434A (antibody, part only; not given: Variable domains, not shown: another chain or arm of the molecule)
constant: B1 constant with M316S, S322A
B6: feline IgG1a T256W (antibody, part only; not given: Variable domains, not shown: another chain or arm of the molecule)
constant: B1 constant with T142W, M316S
B7: feline IgG1a S252Y/S428Y/S434Y (antibody, part only; not given: variable domains and light chain, not shown: another chain or arm of the molecule)
constant: B1 constant with S138Y, M316Y, S322Y
B8: feline IgG1a S252Y/L314K (antibody, part only; not given: Variable domains, not shown: another chain or arm of the molecule)
constant: B1 constant with S138Y, L200K, M316S
B9: feline IgG1a T256L (antibody, part only; not given: Variable domains, not shown: another chain or arm of the molecule)
constant: B1 constant with T142L, M316S
B10: feline IgG1a S434D (antibody, part only; not given: Variable domains, not shown: another chain or arm of the molecule)
constant: B1 constant with M316S, S322D
B11: feline IgG1a T256N (antibody, part only; not given: Variable domains, not shown: another chain or arm of the molecule)
constant: B1 constant with T142N, M316S
B12: feline IgG1a A431Q (antibody, part only; not given: Variable domains, not shown: another chain or arm of the molecule)
constant: B1 constant with M316S, A319Q
B13: feline IgG1a T256S (antibody, part only; not given: Variable domains, not shown: another chain or arm of the molecule)
constant: B1 constant with T142S, M316S
B14: feline IgG1a H436G (antibody, part only; not given: Variable domains, not shown: another chain or arm of the molecule)
constant: B1 constant with M316S, H324G
B15: feline IgG1a Q311W/S434Y (antibody, part only; not given: Variable domains, not shown: another chain or arm of the molecule)
constant: B1 constant with Q197W, M316S, S322Y
B16: feline IgG1a S254T (antibody, part only; not given: Variable domains, not shown: another chain or arm of the molecule)
constant: B1 constant with S140T, M316S
B17: feline IgG1a T256Q (antibody, part only; not given: Variable domains, not shown: another chain or arm of the molecule)
constant: B1 constant with T142Q, M316S
B18: feline IgG1a S434E (antibody, part only; not given: Variable domains, not shown: another chain or arm of the molecule)
constant: B1 constant with M316S, S322E
B19: feline IgG1a Q311W/D312P/L314K (antibody, part only; not given: Variable domains, not shown: another chain or arm of the molecule)
constant: B1 constant with Q197W, D198P, L200K, M316S
B20: feline IgG1a T256M (antibody, part only; not given: Variable domains, not shown: another chain or arm of the molecule)
constant: B1 constant with T142M, M316S
B21: feline IgG1a E430Q (antibody, part only; not given: Variable domains, not shown: another chain or arm of the molecule)
constant: B1 constant with M316S, E318Q
B22: feline IgG1a T256R (antibody, part only; not given: Variable domains, not shown: another chain or arm of the molecule)
constant: B1 constant with T142R, M316S
B23: feline IgG1a A431R (antibody, part only; not given: Variable domains, not shown: another chain or arm of the molecule)
constant: B1 constant with M316S, A319R
B24: feline IgG1a T256D (antibody, part only; not given: Variable domains, not shown: another chain or arm of the molecule)
constant: B1 constant with T142D, M316S
B25: feline IgG1a S434T (antibody, part only; not given: Variable domains, not shown: another chain or arm of the molecule)
constant: B1 constant with M316S, S322T
B26: feline IgG1a T256H (antibody, part only; not given: Variable domains, not shown: another chain or arm of the molecule)
constant: B1 constant with T142H, M316S
B27: feline IgG1a A431V (antibody, part only; not given: Variable domains, not shown: another chain or arm of the molecule)
constant: B1 constant with M316S, A319V
B28: feline IgG1a D312H (antibody, part only; not given: Variable domains, not shown: another chain or arm of the molecule; small tags and cut ends)
constant: B1 constant with D198H, M316S
B29: feline IgG1a T256K (antibody, part only; not given: Variable domains, not shown: another chain or arm of the molecule)
constant: B1 constant with T142K, M316S
B30: feline IgG1a T256Y (antibody, part only; not given: Variable domains, not shown: another chain or arm of the molecule)
constant: B1 constant with T142Y, M316S
B31: feline IgG1a D249S (antibody, part only; not given: Variable domains, not shown: another chain or arm of the molecule)
constant: B1 constant with D135S, M316S
B32: feline IgG1a S254W (antibody, part only; not given: Variable domains, not shown: another chain or arm of the molecule)
constant: B1 constant with S140W, M316S
B33: feline IgG1a H436M (antibody, part only; not given: Variable domains, not shown: another chain or arm of the molecule)
constant: B1 constant with M316S, H324M
B34: feline IgG1a S252Y/S428Y (antibody, part only; not given: Variable domains, not shown: another chain or arm of the molecule)
constant: B1 constant with S138Y, M316Y
B35: feline IgG1a D401R (antibody, part only; not given: Variable domains, not shown: another chain or arm of the molecule)
constant: B1 constant with D289R, M316S
B36: feline IgG1a T256G (antibody, part only; not given: variable domains and light chain, not shown: another chain or arm of the molecule)
constant: B1 constant with T142G, M316S
B37: feline IgG1a S252Y/S434F/Q311W (antibody, part only; not given: Variable domains, not shown: another chain or arm of the molecule)
constant: B1 constant with S138Y, Q197W, M316S, S322F
B38: feline IgG1a S252Y/D312P (antibody, part only; not given: Variable domains, not shown: another chain or arm of the molecule; small tags and cut ends)
constant: B1 constant with S138Y, D198P, M316S
B39: feline IgG1a S254Y (antibody, part only; not given: Variable domains, not shown: another chain or arm of the molecule)
constant: B1 constant with S140Y, M316S
B40: feline IgG1a H436K (antibody, part only; not given: Variable domains, not shown: another chain or arm of the molecule)
constant: B1 constant with M316S, H324K
B41: feline IgG1a T256V (antibody, part only; not given: Variable domains, not shown: another chain or arm of the molecule)
constant: B1 constant with T142V, M316S
B42: feline IgG1a S252Y/S434Y (antibody, part only; not given: Variable domains, not shown: another chain or arm of the molecule)
constant: B1 constant with S138Y, M316S, S322Y
B43: feline IgG1a D249E (antibody, part only; not given: Variable domains, not shown: another chain or arm of the molecule)
constant: B1 constant with D135E, M316S
B44: feline IgG1a T256P (antibody, part only; not given: Variable domains, not shown: another chain or arm of the molecule)
constant: B1 constant with T142P, M316S
B45: feline IgG1a S434V (antibody, part only; not given: Variable domains, not shown: another chain or arm of the molecule)
constant: B1 constant with M316S, S322V
B46: feline IgG1a S252Y/S434F (antibody, part only; not given: Variable domains, not shown: another chain or arm of the molecule)
constant: B1 constant with S138Y, M316S, S322F
B47: feline IgG1a T256E (antibody, part only; not given: variable domains and light chain, not shown: another chain or arm of the molecule)
constant: B1 constant with T142E, M316S
B48: feline IgG1a D399T (antibody, part only; not given: Variable domains, not shown: another chain or arm of the molecule)
constant: B1 constant with D287T, M316S
B49: feline IgG1a T256C (antibody, part only; not given: Variable domains, not shown: another chain or arm of the molecule)
constant: B1 constant with T142C, M316S
B50: feline IgG1a S254R (antibody, part only; not given: Variable domains, not shown: another chain or arm of the molecule)
constant: B1 constant with S140R, M316S
B51: feline IgG1a S254Q (antibody, part only; not given: Variable domains, not shown: another chain or arm of the molecule)
constant: B1 constant with S140Q, M316S
B52: feline IgG1a S254N (antibody, part only; not given: Variable domains, not shown: another chain or arm of the molecule)
constant: B1 constant with S140N, M316S
B53: feline IgG1a D249A (antibody, part only; not given: Variable domains, not shown: another chain or arm of the molecule)
constant: B1 constant with D135A, M316S
B54: feline IgG1a S252Y/Q311W/S434Y (antibody, part only; not given: Variable domains, not shown: another chain or arm of the molecule)
constant: B1 constant with S138Y, Q197W, M316S, S322Y
B55: feline IgG1a Q311L (antibody, part only; not given: Variable domains, not shown: another chain or arm of the molecule)
constant: B1 constant with Q197L, M316S
B56: feline IgG1a S434C (antibody, part only; not given: Variable domains, not shown: another chain or arm of the molecule)
constant: B1 constant with M316S, S322C
B57: feline IgG1a S252Y/S428Y/Q311W (antibody, part only; not given: Variable domains, not shown: another chain or arm of the molecule)
constant: B1 constant with S138Y, Q197W, M316Y

In this assay the target is feline FcRn complex (FcRn-α subunit and β-microglobulin), biotin labeled (feline). In words: SPR, pH 6. In general terms: SPR reads the build-up and loss of mass on a sensor chip optically.
B1 had a Kd of 0.0218 µM.
B2: the Kd turned out to be 0.115 µM.
In turn, B3 showed a Kd of 0.00589 µM.
For B4 the value was 0.0406 µM; for B5, 0.00449 µM; for B6, 0.0252 µM.
Regarding B7, the Kd turned out to be 0.0781 µM.
Consider B8, for which the Kd amounted to 0.0109 µM.
On to B9, for which the Kd worked out at 0.0865 µM.
For the molecule B10, the dissociation constant Kd worked out at 0.00566 µM.
B11 yielded a Kd of 0.0774 µM.
As for B12, the Kd is 0.00664 µM.
Turning to B13, the Kd amounted to 2.14 µM.
Turning to B14, the Kd turned out to be 0.0109 µM.
For B15 the value was 0.027 µM.
B16 displayed a Kd of 0.0161 µM.
For B17 the value was 0.0586 µM.
Regarding B18, the Kd amounted to 0.00335 µM.
In the case of B19, the Kd was found to be 1.23 µM.
In turn, B20 displayed a Kd of 0.0193 µM.
Regarding B21, the Kd was determined as 0.00658 µM.
Molecule B22 gave an equilibrium dissociation constant (Kd) of 0.0277 µM.
B23 returned a dissociation constant (Kd) of 0.00673 µM.
The molecule B24 yielded a Kd of 0.244 µM.
In the case of B25, the Kd was determined as 0.0106 µM.
For B26 the value was 0.0874 µM; for B27, 0.00708 µM; for B28, 0.00733 µM.
For the molecule B29, the Kd was 0.107 µM.
B30 came in with a Kd of 0.022 µM.
With B31, the Kd was determined as 0.00524 µM.
Molecule B32 showed a Kd of 0.0609 µM.
In turn, B33 registered a Kd of 0.00825 µM.
Take B34: the Kd is 0.0172 µM.
For B35 the value was 0.00477 µM; for B36, 0.0769 µM; for B37, 0.164 µM.
Turning to B38, the Kd came to 0.0105 µM.
Take B39: the dissociation constant (Kd) worked out at 0.0785 µM.
In turn, B40 displayed a Kd of 0.00691 µM.
For B41 the value was 0.0195 µM.
B42: the Kd is 0.116 µM.
B43 had a Kd of 0.00584 µM.
For B44 the value was 0.0576 µM.
In turn, B45 yielded a Kd of 0.00371 µM.
In turn, B46 registered a Kd of 1.97 µM.
For B47 the value was 0.0509 µM; for B48, 0.00675 µM.
B49 showed an equilibrium dissociation constant (Kd) of 0.154 µM.
For B50 the value was 0.0215 µM; for B51, 0.0247 µM.
For B52, the Kd came out at 0.0257 µM.
The molecule B53 gave a Kd of 0.00541 µM.
For B54 the value was 0.0972 µM; for B55, 0.00638 µM.
For B56 the value was 0.0118 µM.
The molecule B57 displayed a Kd of 0.0677 µM.
